From paper doi:10.1101/2020.05.06.080622
Read-outs that look alike come from different tables or passages of the source.

What was measured:
Experiment in all cases: EMSA
[1] = molecular target: T1, G4P (HIS-G4P-3xFLAG) (artificial (RHAU-derived), UniProt Q9H2U1 53-75+=GTGSGAGTGSGAGTGSGA+53-75, internal_change)
T1 sequence: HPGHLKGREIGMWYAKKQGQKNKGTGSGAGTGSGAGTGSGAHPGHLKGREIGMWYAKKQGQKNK

[2] = molecular target: T1, G4P (HIS-G4P-3xFLAG); remark: listed apart in the source
[3] = molecular target: T1, G4P (HIS-G4P-3xFLAG); remark: listed apart in the source

B1: dsCSTB (dsDNA)
DNA 1: CCTGAAGCAGACAGCTAGTGAATTCGGGGCGGGGCGCGGGGCGGGGTACTTGCGTATAACTGTTCCATAGT
DNA 2: ACTATGGAACAGTTATACGCAAGTACCCCGCCCCGCGCCCCGCCCCGAATTCACTAGCTGTCTGCTTCAGG
[1]
  binding result: binds

## GGGGCCGGGGCCGGGGCCGGGGCC (structured_DNA) [C9orf72]
[2]
  binding result: binds

## AAGGGAGGGCGGCGGGGCAGGGA (structured_DNA) [PDGFR-β]
[3]
  binding result: binds
